From patent US20230406951A1 (Pfizer, published 2023)

Target: T1, human TNFR2 (human, UniProt P20333 23-461)
T1 construct: expressed on the surface of CHO cells; also called HuTNFR2; TNFRSF1B
T1 sequence: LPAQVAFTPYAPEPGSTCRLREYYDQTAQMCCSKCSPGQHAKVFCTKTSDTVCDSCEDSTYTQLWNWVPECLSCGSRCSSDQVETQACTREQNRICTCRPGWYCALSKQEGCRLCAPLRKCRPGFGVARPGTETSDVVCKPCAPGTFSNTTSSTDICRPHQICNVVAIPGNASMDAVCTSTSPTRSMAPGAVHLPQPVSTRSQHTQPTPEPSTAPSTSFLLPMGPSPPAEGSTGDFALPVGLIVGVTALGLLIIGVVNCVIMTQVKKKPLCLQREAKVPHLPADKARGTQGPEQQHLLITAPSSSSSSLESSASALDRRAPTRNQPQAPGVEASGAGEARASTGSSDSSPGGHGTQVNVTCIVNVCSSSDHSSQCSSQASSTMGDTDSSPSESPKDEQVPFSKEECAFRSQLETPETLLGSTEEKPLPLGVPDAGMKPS
Test: binding to human TNFR2 CHO cells

| Binder | binding result |
| --- | --- |
| IgG 1918 (antibody, name in Kabat numbering, V domains shown, IgG) VH: QVQLVQSGAEVKKPGASVKVSCKVSGFSFPSSGVDWVRQAPGQGLEWLGVTRGEGSTHYNQKFQGRVTITKDTSKSTVYMELSSLRSEDTAVYYCASGEWDEGFVYWGQGTLVTVSS VL: DIQLTQSPSFLSASVGDRVTITCKASQNVGTAVAWYQQKPGKAPKLLIYAASTLQSGVPSRFSGSGSGTEFTLTISSLQPEDFATYYCQQYNSYPFGGGTKVEIKR | no binding |
| IgG 1921 (antibody, name in Kabat numbering, V domains shown, IgG) VH: QVQLVQSGAEVKKPGASVKVSCKVSGFSFPSSGVDWVRQAPGQGLEWLGVTHGSGSTHYNQKFQGRVTITKDTSKSTVYMELSSLRSEDTAVYYCASGEWDEGFVYWGQGTLVTVSS VL: DIQLTQSPSFLSASVGDRVTITCKASQNVGTAVAWYQQKPGKAPKLLIYAASTLQSGVPSRFSGSGSGTEFTLTISSLQPEDFATYYCQQYNSYPFGGGTKVEIKR | no binding |
| IgG 1922 (antibody, name in Kabat numbering, V domains shown, IgG) VH: QVQLVQSGAEVKKPGASVKVSCKVSGFSFPSSGVDWVRQAPGQGLEWLGVTWGVGSTHYNQKFQGRVTITKDTSKSTVYMELSSLRSEDTAVYYCASGESTEGFVYWGQGTLVTVSS VL: DIQLTQSPSFLSASVGDRVTITCKASQNVGTAVAWYQQKPGKAPKLLIYAASTLQSGVPSRFSGSGSGTEFTLTISSLQPEDFATYYCQQYNSYPFGGGTKVEIKR | no binding |
| IgG 1924 (antibody, name in Kabat numbering, V domains shown, IgG) VH: QVQLVQSGAEVKKPGASVKVSCKVSGFSFPSSGVDWVRQAPGQGLEWLGVTWGVGSTHYNQKFQGRVTITKDTSKSTVYMELSSLRSEDTAVYYCASGERDEGFVYWGQGTLVTVSS VL: DIQLTQSPSFLSASVGDRVTITCKASQNVGTAVAWYQQKPGKAPKLLIYAASTLQSGVPSRFSGSGSGTEFTLTISSLQPEDFATYYCQQYNSYPFGGGTKVEIKR | no binding |
| IgG 1925 (antibody, name in Kabat numbering, V domains shown, IgG) VH: QVQLVQSGAEVKKPGASVKVSCKVSGFSFPSSGVDWVRQAPGQGLEWLGVTWGVGSTHYNQKFQGRVTITKDTSKSTVYMELSSLRSEDTAVYYCASGEQDEGFVYWGQGTLVTVSS VL: DIQLTQSPSFLSASVGDRVTITCKASQNVGTAVAWYQQKPGKAPKLLIYAASTLQSGVPSRFSGSGSGTEFTLTISSLQPEDFATYYCQQYNSYPFGGGTKVEIKR | no binding |
| IgG 1926 (antibody, name in Kabat numbering, V domains shown, IgG) VH: QVQLVQSGAEVKKPGASVKVSCKVSGFSFPSSGVDWVRQAPGQGLEWLGVTKGQGSTHYNQKFQGRVTITKDTSKSTVYMELSSLRSEDTAVYYCASGEWDEGFVYWGQGTLVTVSS VL: DIQLTQSPSFLSASVGDRVTITCKASQNVGTAVAWYQQKPGKAPKLLIYAASTLQSGVPSRFSGSGSGTEFTLTISSLQPEDFATYYCQQYYSTPFGGGTKVEIKR | no binding |
| IgG 1927 (antibody, name in Kabat numbering, V domains shown, IgG) VH: QVQLVQSGAEVKKPGASVKVSCKVSGFSFPSSGVDWVRQAPGQGLEWLGVTRGEGSTHYNQKFQGRVTITKDTSKSTVYMELSSLRSEDTAVYYCASGEWDEGFVYWGQGTLVTVSS VL: DIQLTQSPSFLSASVGDRVTITCKASQNVGTAVAWYQQKPGKAPKLLIYAASTLQSGVPSRFSGSGSGTEFTLTISSLQPEDFATYYCQQYYSTPFGGGTKVEIKR | no binding |
| IgG 1931 (antibody, name in Kabat numbering, V domains shown, IgG) VH: QVQLVQSGAEVKKPGASVKVSCKVSGFSFPSSGVDWVRQAPGQGLEWLGVTWGVGSTHYNQKFQGRVTITKDTSKSTVYMELSSLRSEDTAVYYCASGESTEGFVYWGQGTLVTVSS VL: DIQLTQSPSFLSASVGDRVTITCKASQNVGTAVAWYQQKPGKAPKLLIYAASTLQSGVPSRFSGSGSGTEFTLTISSLQPEDFATYYCQQYYSTPFGGGTKVEIKR | no binding |
| IgG 1932 (antibody, name in Kabat numbering, V domains shown, IgG) VH: QVQLVQSGAEVKKPGASVKVSCKVSGFSFPSSGVDWVRQAPGQGLEWLGVTWGVGSTHYNQKFQGRVTITKDTSKSTVYMELSSLRSEDTAVYYCASGEHDEGFVYWGQGTLVTVSS VL: DIQLTQSPSFLSASVGDRVTITCKASQNVGTAVAWYQQKPGKAPKLLIYAASTLQSGVPSRFSGSGSGTEFTLTISSLQPEDFATYYCQQYYSTPFGGGTKVEIKR | no binding |
| IgG 1933 (antibody, name in Kabat numbering, V domains shown, IgG) VH: QVQLVQSGAEVKKPGASVKVSCKVSGFSFPSSGVDWVRQAPGQGLEWLGVTWGVGSTHYNQKFQGRVTITKDTSKSTVYMELSSLRSEDTAVYYCASGERDEGFVYWGQGTLVTVSS VL: DIQLTQSPSFLSASVGDRVTITCKASQNVGTAVAWYQQKPGKAPKLLIYAASTLQSGVPSRFSGSGSGTEFTLTISSLQPEDFATYYCQQYYSTPFGGGTKVEIKR | no binding |
| IgG 1934 (antibody, name in Kabat numbering, V domains shown, IgG) VH: QVQLVQSGAEVKKPGASVKVSCKVSGFSFPSSGVDWVRQAPGQGLEWLGVTWGVGSTHYNQKFQGRVTITKDTSKSTVYMELSSLRSEDTAVYYCASGEQDEGFVYWGQGTLVTVSS VL: DIQLTQSPSFLSASVGDRVTITCKASQNVGTAVAWYQQKPGKAPKLLIYAASTLQSGVPSRFSGSGSGTEFTLTISSLQPEDFATYYCQQYYSTPFGGGTKVEIKR | no binding |
| IgG 1973 (antibody, name in Kabat numbering, V domains shown, IgG) VH: QVQLVQSGAEVKKPGASVKVSCKVSGFSFPSSGVDWVRQAPGQGLEWLGVTKGQGSTHYNQKFQGRVTITKDTSKSTVYMELSSLRSEDTAVYYCASGESTEGFVYWGQGTLVTVSS VL: DIQLTQSPSFLSASVGDRVTITCKASQNVGTAVAWYQQKPGKAPKLLIYAASTLQSGVPSRFSGSGSGTEFTLTISSLQPEDFATYYCQQYNSYPFGGGTKVEIKR | no binding |
| IgG 1977 (antibody, name in Kabat numbering, V domains shown, IgG) VH: QVQLVQSGAEVKKPGASVKVSCKVSGFSFPSSGVDWVRQAPGQGLEWLGVTRGEGSTHYNQKFQGRVTITKDTSKSTVYMELSSLRSEDTAVYYCASGESTEGFVYWGQGTLVTVSS VL: DIQLTQSPSFLSASVGDRVTITCKASQNVGTAVAWYQQKPGKAPKLLIYAASTLQSGVPSRFSGSGSGTEFTLTISSLQPEDFATYYCQQYNSYPFGGGTKVEIKR | no binding |
| IgG 1978 (antibody, name in Kabat numbering, V domains shown, IgG) VH: QVQLVQSGAEVKKPGASVKVSCKVSGFSFPSSGVDWVRQAPGQGLEWLGVTRGEGSTHYNQKFQGRVTITKDTSKSTVYMELSSLRSEDTAVYYCASGEHDEGFVYWGQGTLVTVSS VL: DIQLTQSPSFLSASVGDRVTITCKASQNVGTAVAWYQQKPGKAPKLLIYAASTLQSGVPSRFSGSGSGTEFTLTISSLQPEDFATYYCQQYNSYPFGGGTKVEIKR | no binding |
| IgG 1979 (antibody, name in Kabat numbering, V domains shown, IgG) VH: QVQLVQSGAEVKKPGASVKVSCKVSGFSFPSSGVDWVRQAPGQGLEWLGVTRGEGSTHYNQKFQGRVTITKDTSKSTVYMELSSLRSEDTAVYYCASGERDEGFVYWGQGTLVTVSS VL: DIQLTQSPSFLSASVGDRVTITCKASQNVGTAVAWYQQKPGKAPKLLIYAASTLQSGVPSRFSGSGSGTEFTLTISSLQPEDFATYYCQQYNSYPFGGGTKVEIKR | no binding |
| IgG 1980 (antibody, name in Kabat numbering, V domains shown, IgG) VH: QVQLVQSGAEVKKPGASVKVSCKVSGFSFPSSGVDWVRQAPGQGLEWLGVTRGEGSTHYNQKFQGRVTITKDTSKSTVYMELSSLRSEDTAVYYCASGEQDEGFVYWGQGTLVTVSS VL: DIQLTQSPSFLSASVGDRVTITCKASQNVGTAVAWYQQKPGKAPKLLIYAASTLQSGVPSRFSGSGSGTEFTLTISSLQPEDFATYYCQQYNSYPFGGGTKVEIKR | no binding |
